# Patent US20160333068A1 (BRITISH COLUMBIA CANCER AGENCY BRANCH, published 2016)
# Bridge positions count the residues as written; N and C are the ends. Square brackets hold non-standard residues; d marks the D form. AMBF3 = N,N-dimethylammoniomethyl-trifluoroborate
# Target: T1, sstr3 (UniProt P32745 1-418, limits assumed)
# T1 construct: whole, on cells; Membranes of transfected CHO-K1 cells; The species is printed only for sstr2 (human); also called somatostatin receptor subtype 3
# Experiment: competitive filtration binding assay, displacement of [^125I]-Tyr-somatostatin-14 (0.2 nM) from CHO-K1 membranes
# Description: Membranes from Chinese hamster ovary K1 cells transfected with sstr1, sstr2, sstr3, sstr5, and [¹²⁵I]-Tyr-somatostatin-14 were obtained from PerkinElmer. A standard filtration binding assay was performed in 96-well plates (MultiScreen; Millipore) to determine the binding affinities (inhibition constant, or Kᵢ) of AMBF₃-TATE against different receptor subtypes. Briefly, membranes ([…]) were incubated with the ¹²⁵I-labelled standard at a concentration of 0.05 nM for sstr2 or 0.2 nM for other subtypes. Increasing concentrations of AMBF₃-TATE were added to the wells in buffer (25 mM N-2-hydroxyethylpiperazine-N-2-ethanesulfonic acid, pH 7.4; 10 mM MgCl₂; 1 mM CaCl₂; and 0.5% bovine serum albumin). After incubation (37° C., 1 h), the wells were aspirated and washed 8 times with 50 mM ice-cold buffer (Tris-HCl, pH 7.4) over grade GF/B filters. The filters were removed and counted by a γ counter (Cobra II; Packard). Data were fitted to a 1-site competition model (GraphPad Prism 6.1 software) to calculate Kᵢ.
# T1 sequence (P32745 whole entry): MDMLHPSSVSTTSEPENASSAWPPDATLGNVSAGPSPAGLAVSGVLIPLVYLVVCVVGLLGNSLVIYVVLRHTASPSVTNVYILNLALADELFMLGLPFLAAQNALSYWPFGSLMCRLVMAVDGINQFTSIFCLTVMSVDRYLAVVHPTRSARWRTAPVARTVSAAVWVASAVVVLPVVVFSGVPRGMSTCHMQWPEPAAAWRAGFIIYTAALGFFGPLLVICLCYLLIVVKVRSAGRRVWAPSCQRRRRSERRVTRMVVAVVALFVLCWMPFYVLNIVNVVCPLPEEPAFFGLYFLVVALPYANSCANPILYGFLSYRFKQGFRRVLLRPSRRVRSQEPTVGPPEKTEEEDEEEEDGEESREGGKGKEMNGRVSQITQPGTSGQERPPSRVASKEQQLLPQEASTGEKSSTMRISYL
binder,measurement,value
"{AMBF3-triazolylacetyl}-[dF]CY[dW]KTCT-OH (disulfide 2-7, Free C-terminal acid (octreotate); also called ^19F-AMBF3-TATE; ^18F-AMBF3-TATE) [AMBF3-TATE]",Ki,28.4 nM
